Assays:
murine CD103 = target: T1, murine CD103 (mouse, UniProt Q60677 20-1167); experiment: flow cytometry on mouse spleen and thymus cells
T1 construct: whole, on cells; also called murine CD103+ T cells; mouse CD103
T1 sequence (looked up): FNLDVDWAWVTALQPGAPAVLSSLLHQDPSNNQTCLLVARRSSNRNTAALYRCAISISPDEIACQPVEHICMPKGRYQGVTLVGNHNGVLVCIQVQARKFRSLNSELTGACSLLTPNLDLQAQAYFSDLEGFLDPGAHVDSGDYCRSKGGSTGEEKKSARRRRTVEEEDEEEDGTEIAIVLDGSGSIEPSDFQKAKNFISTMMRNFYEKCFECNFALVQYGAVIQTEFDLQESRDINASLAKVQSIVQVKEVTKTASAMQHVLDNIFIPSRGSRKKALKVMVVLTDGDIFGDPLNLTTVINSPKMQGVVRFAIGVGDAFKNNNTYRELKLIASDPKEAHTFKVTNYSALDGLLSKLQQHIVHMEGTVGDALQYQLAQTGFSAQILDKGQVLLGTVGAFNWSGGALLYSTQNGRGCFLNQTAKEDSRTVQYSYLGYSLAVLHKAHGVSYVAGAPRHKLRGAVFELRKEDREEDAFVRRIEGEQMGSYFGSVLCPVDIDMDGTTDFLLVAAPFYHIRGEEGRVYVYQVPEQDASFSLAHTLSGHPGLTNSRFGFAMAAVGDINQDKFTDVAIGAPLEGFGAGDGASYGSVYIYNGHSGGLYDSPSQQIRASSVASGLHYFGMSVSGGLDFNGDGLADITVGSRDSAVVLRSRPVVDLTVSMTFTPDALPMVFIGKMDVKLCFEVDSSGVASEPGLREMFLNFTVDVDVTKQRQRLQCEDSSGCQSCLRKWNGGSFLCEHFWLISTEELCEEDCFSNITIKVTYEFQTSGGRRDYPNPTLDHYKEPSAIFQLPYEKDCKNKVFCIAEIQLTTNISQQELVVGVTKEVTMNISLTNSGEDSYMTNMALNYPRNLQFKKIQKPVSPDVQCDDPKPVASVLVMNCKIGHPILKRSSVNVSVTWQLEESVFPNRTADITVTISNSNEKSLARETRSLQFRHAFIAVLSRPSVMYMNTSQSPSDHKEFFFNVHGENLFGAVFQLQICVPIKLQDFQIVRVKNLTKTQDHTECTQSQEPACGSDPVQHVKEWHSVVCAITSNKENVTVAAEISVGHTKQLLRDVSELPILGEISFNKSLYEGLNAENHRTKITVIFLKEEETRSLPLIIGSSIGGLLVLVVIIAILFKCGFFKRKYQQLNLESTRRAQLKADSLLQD
Method: Additional aliquots were stained with relevant isotype controls or as fluorescence minus one controls (“FMO” controls are cells stained with all the fluorophores minus one fluorophore; the relevant isotype controls contain either a directly labeled unspecific isotype antibody or an unspecific isotype antibody combined with secondary detection reagent). Percentage binding of fluorescently labeled mAbs was determined using flow cytometry. Maximum binding was set at 100%. […] Data analysis was performed with FlowJo v10 (Tree Star) and surface receptor levels were expressed as mean fluorescent intensity (MFI).

[1] = target: T2, human integrin Alpha-4 / human integrin Beta-7 heterodimer on CHO-K1 cells (human, UniProt P13612 34-1032; P26010 20-798); experiment: cell ELISA on CHO.K1-humanAlpha4/beta7 cells, abs 450-610
T2 construct: Used as the control for reactivity with hBeta7; also called hAlpha4/hBeta7; CHO.K1-hAlpha4/hBeta7
T2 sequence (P13612 34-1032 limits assumed, chain 1 of 2): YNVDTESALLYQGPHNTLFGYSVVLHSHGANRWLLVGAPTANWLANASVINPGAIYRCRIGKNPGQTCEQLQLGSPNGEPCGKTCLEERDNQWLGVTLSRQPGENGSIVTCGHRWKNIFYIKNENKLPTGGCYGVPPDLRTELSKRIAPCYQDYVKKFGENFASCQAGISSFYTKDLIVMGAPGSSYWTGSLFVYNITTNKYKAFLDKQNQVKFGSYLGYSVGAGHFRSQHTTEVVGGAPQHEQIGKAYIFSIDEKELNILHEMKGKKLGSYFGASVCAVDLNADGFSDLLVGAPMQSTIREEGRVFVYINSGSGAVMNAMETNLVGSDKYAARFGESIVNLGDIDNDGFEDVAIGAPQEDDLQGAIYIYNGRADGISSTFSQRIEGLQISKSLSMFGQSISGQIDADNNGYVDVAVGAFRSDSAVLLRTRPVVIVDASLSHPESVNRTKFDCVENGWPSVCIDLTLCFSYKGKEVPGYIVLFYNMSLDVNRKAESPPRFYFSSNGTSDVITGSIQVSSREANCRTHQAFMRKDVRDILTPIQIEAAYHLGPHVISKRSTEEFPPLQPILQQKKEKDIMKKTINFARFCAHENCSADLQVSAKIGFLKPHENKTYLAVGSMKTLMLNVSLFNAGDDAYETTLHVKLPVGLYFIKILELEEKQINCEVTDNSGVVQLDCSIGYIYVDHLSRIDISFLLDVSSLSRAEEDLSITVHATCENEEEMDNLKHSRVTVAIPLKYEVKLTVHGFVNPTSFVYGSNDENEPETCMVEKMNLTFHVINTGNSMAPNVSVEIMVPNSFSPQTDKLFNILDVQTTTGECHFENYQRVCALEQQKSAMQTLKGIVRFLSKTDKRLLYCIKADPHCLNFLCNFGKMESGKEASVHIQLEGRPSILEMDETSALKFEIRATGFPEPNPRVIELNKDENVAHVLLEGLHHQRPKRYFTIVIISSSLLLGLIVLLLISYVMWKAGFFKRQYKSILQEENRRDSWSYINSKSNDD
T2 sequence (P26010 20-798 limits assumed, chain 2 of 2): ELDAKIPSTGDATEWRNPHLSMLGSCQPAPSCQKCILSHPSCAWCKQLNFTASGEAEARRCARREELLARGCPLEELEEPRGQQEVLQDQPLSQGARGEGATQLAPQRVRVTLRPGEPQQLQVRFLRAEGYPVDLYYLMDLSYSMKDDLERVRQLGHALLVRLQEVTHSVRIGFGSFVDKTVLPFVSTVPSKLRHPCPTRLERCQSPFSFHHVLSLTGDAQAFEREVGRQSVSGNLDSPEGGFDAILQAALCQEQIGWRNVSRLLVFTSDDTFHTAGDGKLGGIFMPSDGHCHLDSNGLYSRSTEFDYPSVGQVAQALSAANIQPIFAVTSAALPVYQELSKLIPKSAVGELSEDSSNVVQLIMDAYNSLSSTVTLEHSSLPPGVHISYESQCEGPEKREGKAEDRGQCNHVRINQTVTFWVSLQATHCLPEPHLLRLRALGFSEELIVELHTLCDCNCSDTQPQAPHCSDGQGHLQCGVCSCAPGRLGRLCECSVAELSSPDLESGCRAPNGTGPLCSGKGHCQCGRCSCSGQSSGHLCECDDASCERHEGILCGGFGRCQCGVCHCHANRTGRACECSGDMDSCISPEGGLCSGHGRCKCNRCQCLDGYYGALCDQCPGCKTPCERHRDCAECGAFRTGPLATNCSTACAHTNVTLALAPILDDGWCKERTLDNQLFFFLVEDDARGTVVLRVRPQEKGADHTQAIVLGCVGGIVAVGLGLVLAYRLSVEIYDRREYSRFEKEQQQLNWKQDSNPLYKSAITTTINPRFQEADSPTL

[2] = target: T3, human CD103 (integrin Alpha-E) / human integrin Beta-7 heterodimer on cells (human, UniProt P38570 19-1179; P26010 20-798); experiment: flow cytometry competition on CD103+CD8+ T cells; pre-incubation with unlabeled 01A; table n=2
T3 construct: the assay field tells which cells; also called hCD103/hBeta7; CHO.K1-hCD103/hBeta7
T3 sequence (P38570 19-1179 limits assumed, chain 1 of 2): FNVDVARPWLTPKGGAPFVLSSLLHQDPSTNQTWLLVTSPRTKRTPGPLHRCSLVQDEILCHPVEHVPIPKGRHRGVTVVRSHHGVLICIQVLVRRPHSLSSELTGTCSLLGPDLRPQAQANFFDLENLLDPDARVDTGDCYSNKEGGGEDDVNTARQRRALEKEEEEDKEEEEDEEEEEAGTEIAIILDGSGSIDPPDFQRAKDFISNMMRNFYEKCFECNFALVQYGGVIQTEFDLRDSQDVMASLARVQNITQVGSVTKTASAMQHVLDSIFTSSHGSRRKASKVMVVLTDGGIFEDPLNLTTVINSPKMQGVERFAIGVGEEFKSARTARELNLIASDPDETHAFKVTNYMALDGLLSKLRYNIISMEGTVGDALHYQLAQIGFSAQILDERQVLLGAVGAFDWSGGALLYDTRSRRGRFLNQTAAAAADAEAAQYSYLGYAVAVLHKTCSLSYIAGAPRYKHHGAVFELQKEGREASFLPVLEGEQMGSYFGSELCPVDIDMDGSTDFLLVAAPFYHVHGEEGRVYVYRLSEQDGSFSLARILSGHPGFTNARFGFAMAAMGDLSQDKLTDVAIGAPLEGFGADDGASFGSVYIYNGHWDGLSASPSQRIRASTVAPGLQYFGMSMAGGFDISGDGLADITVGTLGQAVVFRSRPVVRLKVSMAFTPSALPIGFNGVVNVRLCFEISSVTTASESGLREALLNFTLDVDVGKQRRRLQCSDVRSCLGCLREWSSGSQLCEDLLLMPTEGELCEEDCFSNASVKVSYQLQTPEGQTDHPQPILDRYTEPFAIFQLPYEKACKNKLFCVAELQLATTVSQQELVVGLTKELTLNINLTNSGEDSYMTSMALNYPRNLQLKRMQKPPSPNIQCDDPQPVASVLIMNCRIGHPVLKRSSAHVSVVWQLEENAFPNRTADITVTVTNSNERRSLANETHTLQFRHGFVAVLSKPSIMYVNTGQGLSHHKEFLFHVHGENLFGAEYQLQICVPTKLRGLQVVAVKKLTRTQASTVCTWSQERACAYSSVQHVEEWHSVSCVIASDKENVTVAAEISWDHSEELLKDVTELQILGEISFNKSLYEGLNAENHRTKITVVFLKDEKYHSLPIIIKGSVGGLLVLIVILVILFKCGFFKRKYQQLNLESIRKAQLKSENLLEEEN
T3 sequence (P26010 20-798 limits assumed, chain 2 of 2): as the sequence (P26010 20-798 limits assumed, chain 2 of 2) above
Method: (§1) Percentage binding of fluorescently labeled mAbs was determined using flow cytometry. Maximum binding was set at 100%.
(§2) Percentage binding of fluorescently labeled mAbs was determined using flow cytometry. Maximum binding was set at 100%

[3] = target: T3, human CD103 (integrin Alpha-E) / human …; experiment: flow cytometry competition on CD103+CD8+ T cells; pre-incubation with unlabeled 02A; table n=1
Method: as §1, §2

[4] = target: T3, human CD103 (integrin Alpha-E) / human …; experiment: flow cytometry competition on CD103+CD8+ T cells; pre-incubation with unlabeled 07A; table n=1
Method: as §2

[5] = target: T3, human CD103 (integrin Alpha-E) / human …; experiment: flow cytometry competition on CD103+CD8+ T cells; pre-incubation with unlabeled BERACT; table n=2
Method: as §1, §2

[6] = target: T3, human CD103 (integrin Alpha-E) / human …; experiment: cell-based ELISA on CHO.K1-hCD103/hBeta7 cells, relative absorbance, upper panel
Method: (§3) Wells were washed with PBS and incubated with Rabbit anti-Mouse/IgG-HRP (1:4000, Dako) or Fab specific Goat anti-Human/IgG-HRP (1:4000; Sigma Aldrich) for 1 h at 37° C. Next, wells were washed with PBS and TMB substrate (KPL) was added. The color reaction was stopped by adding 1M HCl solution and the absorbance was measured by a microplate reader (Thermo Scientific).

[7] = target: T3, human CD103 (integrin Alpha-E) / human …; experiment: cell-based ELISA on CHO.K1-hCD103/hBeta7 cells, Df-conjugated mAb, relative absorbance, upper panel
Method: as §3

B1: hCD103.07A (antibody, mouse IgG1, V domains shown)
VH: EVQLQESGPSLVKPSQTLSLTCSVTGDSITSGYWNWIRKFPGNKLEYMGYITYSGSTYYNPSLKSRISITRDTSKNQYYLQLNSVTTEDTATYYCARNYYGSSSMDYWGQGTSVTVSS
VL: DIVMTQSQKFMSTSVADRVSVTCKASQNVGSDVAWYQQKPGQSPKSLIYSASYRYSGVPDRFTGSGSGTDFTLTISNVQSEDLAEYFCQQYNSYPSTFGGGTKLEIK
notes: also called clone 07A
binding result (murine CD103): no binding
binding result [1]: no binding
% binding of the fluorescently labeled mAb (IgG pre-incubation = 100) [2]: 0.7%
% binding of the fluorescently labeled mAb (IgG pre-incubation = 100) [3]: 0.5%
% binding of the fluorescently labeled mAb (IgG pre-incubation = 100) [4]: 33.7%
% binding of the fluorescently labeled mAb (IgG pre-incubation = 100) [5]: 1%

B2: hCD103.01A (antibody, V domains shown)
VH: EVQLQESGPSLVKPSQTLSLTCSVTGDSITSGYWNWIRKFPGNKLEYMGYITYSGSTYYNPSLKSRISITRDTSKNQYYLQLNSVTTEDTATYYCTRHYYGSDAMDYWGQGTSVTVSS
VL: DIVMTQSHKFMSTSVGDRVSITCKASQDVSIAVAWYQQRPGQSPKLLIYSASYRYTGVPDRFTGSGSGTDFTFTISSVQAEDLAVYYCQQHYSTPWTFGGGTKLEIK
notes: Also tested labelled with AF647, conjugated with Df and labelled with 89Zr; these are written under this molecule; also called clone 01A; hCD103.01 mAb
binding result (murine CD103): no binding
binding result [1]: no binding
EC50 (read off the curve) [6]: ~0.04 µg/mL
% binding of the fluorescently labeled mAb (IgG pre-incubation = 100) [2]: 2.2%
% binding of the fluorescently labeled mAb (IgG pre-incubation = 100) [3]: 2.3%
% binding of the fluorescently labeled mAb (IgG pre-incubation = 100) [4]: 27.5%
EC50 (read off the curve) [7]: ~0.04 µg/mL
% binding of the fluorescently labeled mAb (IgG pre-incubation = 100) [5]: 4%

B3: hCD103.05A (antibody, mouse IgG1, V domains shown)
VH: EVQLQQSGPELEKPGASAKISCKASGYSFTGYNMNWVKQSNGKSLEWIGNIDPYYGGTSYNQKFKGKATLTVDKSSSTAYMQLKSLTSEDSAVYYCARSFYGYDAGSPYNYAMDYWGQGTPVTVSP
VL: DIVMTQSHKFMSTSVGDRVSITCKASQDVGTFVAWYQQKPGQSPKLLIYWASTRHTGVPDRFTGSGSGTDFTLTISNVQSEDLADYFCHQYSSYPYTFGGGTQLEIK
notes: Also tested labelled with AF647, conjugated with Df and labelled with 89Zr; these are written under this molecule; also called clone 05A; hCD103.05 mAb
binding result (murine CD103): no binding
binding result [1]: no binding
EC50 (read off the curve) [6]: ~0.04 µg/mL
% binding of the fluorescently labeled mAb (IgG pre-incubation = 100) [2]: 2.2%
% binding of the fluorescently labeled mAb (IgG pre-incubation = 100) [3]: 4.3%
% binding of the fluorescently labeled mAb (IgG pre-incubation = 100) [4]: 66.3%
EC50 (read off the curve) [7]: ~0.04 µg/mL
% binding of the fluorescently labeled mAb (IgG pre-incubation = 100) [5]: 4.9%

B4: hCD103.06A (antibody, mouse IgG1, V domains shown)
VH: QVQLQQPGSELVRPGASVKLSCKASGYTFTSYWMHWVKQRHGQGLEWIGNIYPGSGSTNYDEKFKSKGTLTVDTSSSTAYMHLSSLTSEDSAVYYCTRGVYDNPYYFDYWGQGTTLTVSS
VL: DIQMTQSSSNLSVSLGGRVTITCKASDHINNWLAWYQQKPGNAPRVLISGATSLETGVPSRFSGSGSGKDYTLSITSLQTEDVATYYCQQYWSIPLTFGAGTKLELK
notes: also called clone 06A; hCD103.06 mAb
binding result (murine CD103): no binding
binding result [1]: no binding
% binding of the fluorescently labeled mAb (IgG pre-incubation = 100) [2]: 99.1%
% binding of the fluorescently labeled mAb (IgG pre-incubation = 100) [3]: 104%
% binding of the fluorescently labeled mAb (IgG pre-incubation = 100) [4]: 93.2%
% binding of the fluorescently labeled mAb (IgG pre-incubation = 100) [5]: 109%
